Assay results as given in patent US20210171601A1 (Memorial Sloan Kettering, published 2021).
Where no end group is shown, it is not given here.

Columns and labels:
[1] = target: T1, leucine zipper-based CAR (ZipR-CAR), e.g. EE12RR345L:CD28zeta; test: co-expression in T cells (FIG. 8)
T1 construct: Used where the text speaks of 'the ZipR-CAR' without naming the spacer; Expressed on T cells; also called leucine zipper receptor-based CAR; EE-CAR

[2] = target: T2, membrane-bound leucine zipper (EE12RR345L); test: both co-transduced into the same cell; affinity tag detected on the cell surface by flow cytometry
T2 construct: Expressed on the surface of the transduced cell; not shown: spacer, transmembrane and any intracellular part of the construct of this experiment are not specified

B1: IL-3 zipperkine (IL-3 cytokine with C-terminal FLAG-tag and RR12EE345L leucine zipper) (ligand)
chain: ASISGRDTHRLTRTLNCSSIVKEIIGKLPEPELKTDDEGPSLRNKSFRRVNLSKFVESQGEVDPEDRYVIKSNLQKLNCCLPTSANDSALPGVFIRDLDDFRKKLRFYMVHLNDLETVLTSRPPQPASGSVSPNRGTVECGSGDYKDDDDKLEIRAAFLRQRNTALRTEVAELEQEVQRLENEVSQYETRYGPLGGGK
B1: binds [1].

B2: RR12EE345L leucine zipper with a linked affinity tag (peptide, not shown: small tags and cut ends)
chain: LEIRAAFLRQRNTALRTEVAELEQEVQRLENEVSQYETRYGPLGGGK
modifications: not fully specified (N-terminus)
notes: Secreted tagged zipper of the two-vector sorting system
B2: binds [2].
